Source: PMC4963855

Target: mouse recombinant TNF (mouse) (UniProt P06804)
Sequence of UniProt P06804 (P06804 80-235): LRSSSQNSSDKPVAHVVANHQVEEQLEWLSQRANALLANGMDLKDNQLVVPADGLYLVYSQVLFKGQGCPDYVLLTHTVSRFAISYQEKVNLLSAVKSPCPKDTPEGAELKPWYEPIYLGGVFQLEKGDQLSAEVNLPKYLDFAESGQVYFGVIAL

## BmooMP-alpha-I, zinc metalloprotease of class P-I from Bothrops moojeni snake venom (enzyme)
  TNF level detected by sandwich ELISA after preincubation of recombinant TNF (1000 pg/mL) with 12 ug/mL BmooMP-alpha-I for 45 min at 37 °C (degradation of TNF): 53.4 % decrease
  TNF level detected by sandwich ELISA after preincubation of recombinant TNF with BmooMP-alpha-I inactivated with 10 mM Na2EDTA (BmooMP-alpha-I(i)): 80%
